Patent US20070218061A1 (VASGENE THERAPEUTICS, published 2007)
Like-named read-outs stand apart in the source and are kept apart here.

T1: B4ECv3 (human, UniProt P54760 16-537)
T1 construct: also called B4ECv3 protein
T1 sequence: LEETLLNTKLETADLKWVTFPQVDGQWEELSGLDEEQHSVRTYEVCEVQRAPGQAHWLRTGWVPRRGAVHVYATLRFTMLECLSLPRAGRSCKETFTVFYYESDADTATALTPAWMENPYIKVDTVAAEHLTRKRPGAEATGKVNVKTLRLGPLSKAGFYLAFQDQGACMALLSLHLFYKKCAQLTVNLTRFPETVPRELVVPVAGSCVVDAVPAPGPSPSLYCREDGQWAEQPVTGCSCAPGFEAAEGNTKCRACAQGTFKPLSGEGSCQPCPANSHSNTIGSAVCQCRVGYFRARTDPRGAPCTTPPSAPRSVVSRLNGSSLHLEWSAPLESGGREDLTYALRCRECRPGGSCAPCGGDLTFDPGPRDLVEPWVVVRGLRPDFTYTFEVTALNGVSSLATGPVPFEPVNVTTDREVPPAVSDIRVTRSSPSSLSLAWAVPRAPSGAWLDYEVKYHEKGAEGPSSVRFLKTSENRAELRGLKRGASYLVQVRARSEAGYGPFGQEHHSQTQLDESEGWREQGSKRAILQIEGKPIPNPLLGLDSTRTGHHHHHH

B1: EphrinB2EC-AP from pAPTag2 (ligand)
chain: IVLEPIYWNSSNSKFLPGQGLVLYPQIGDKLDIICPKVDSKTVGQYEYYKVYMVDKDQADRCTIKKENTPLLNCAKPDQDIKFTIKFQEFSPNLWGLEFQKNKDYYIISTSNGSLEGLDNQEGGVCQTRAMKILMKVGQDASSAGSTRNKDPTRRPELEAGTNGRSSTTSPFVKPNPGSSTDGNSAGHSGNNILGSEGSSGIIPVEEENPDFWNREAAEALGAAKKLQPAQTAAKNLIIFLGDGMGVSTVTAARILKGQKKDKLGPEIPLAMDRFPYVALSKTYNVDKHVPDSGATATAYLCGVKGNFQTIGLSAAARFNQCNTTRGNEVISVMNRAKKAGKSVGVVTTTRVQHASPAGTYAHTVNRNWYSDADVPASARQEGCQDIATQLISNMDIDVILGGGRKYMFPMGTPDPEYPDDYSQGGTRLDGKNLVQEWLAKRQGARYVWNRTELMQASLDPSVTHLMGLFEPGDMKYEIHRDSTLDPSLMEMTEAALRLLSRNPRGFFLFVEGGRIDHGHHESRAYRALTETIMFDDAIERAGQLTSEEDTLSLVTADHSHVFSFGGYPLRGSSIFGLAPGKARDRKAYTVLLYGNGPGYVLKDGARPDVTESESGSPEYRQQSAVPLDEETHAGEDVAVFARGPQAHLVHGVQEQTFIAHVMAFAACLEPYTACDLAPPAGTTDAAHPG
notes: also called B2-AP; B2ECAP reagent
B2: Murine EphrinB1-EC-Fc (Fc fusion)
chain: ATPLAKNLEPVSWSSLNPKFLSGKGLVIYPKIGDKLDIICPRAEAGRPYEYYKLYLVRPEQAAACSTVLDPNVLVTCNKPHQEIRFTIKFQEFSPNYMGLEFKKYHDYYITSTSNGSLEGLENREGGVCRTRTMKIVMKVGQDPNAVTPEQLTTSRPSKESDNTVKTATQAPGRGSQGDSDGKHETVNQEEKSGPGAGGGGSGDSDSFFNSK
B3: Murine EphrinA2-EC-Fc (Fc fusion)
chain: RNEDPARANADRYAVYWNRSNPRFQVSAVGDGGGYTVEVSINDYLDIYCPHYGAPLPPAERMERYILYMVNGEGHASCDHRQRGFKRWECNRPAAPGGPLKFSEKFQLFTPFSLGFEFRPGHEYYYISATPPNLVDRPCLRLKVYVRPTNETLYEAPEPIFTSN

Experiments:
[1] = biological target: HeV and NiV F and G envelope glycoproteins (on effector cells); assay: cell-based or functional assay
[2] = biological target: T1, B4ECv3; assay: biochemical assays; B4ECv3 on Ni-NTA agarose, 50 nM B2-AP, PNPP colorimetry
[3] = biological target: HeV and NiV F and G envelope glycoproteins (on effector cells); assay: cell-based or functional assay; remark: listed apart in the source

Molecule	% fusion (cell fusion assay), 0.1 µg/ml inhibitor [1] [%]	% fusion (cell fusion assay), 1.0 µg/ml inhibitor [1] [%]	% fusion (cell fusion assay), 10 µg/ml inhibitor [1] [%]	% fusion (cell fusion reporter gene assay, beta-Gal), 10 µg/ml protein [1] [%]	binding result [2]	% fusion (cell fusion assay), 0.1 µg/ml inhibitor [3] [%]	% fusion (cell fusion assay), 1.0 µg/ml inhibitor [3] [%]	% fusion (cell fusion assay), 10 µg/ml inhibitor [3] [%]	% fusion (cell fusion reporter gene assay, beta-Gal), 10 µg/ml protein [3] [%]
human EphrinB2EC-Human serum albumin fusion protein (from UniProt P52799 28-229)	85.3	115	64	54.8					
Inactivated Human EphrinB2-Ec (from UniProt P52799 28-225) (ligand)	103	104	77.3	83.3					
Bovine Serum Albumin (from UniProt P02769 25-607)	112	112	124	126					
Murine EphrinB2-Ec-Fc (from UniProt P52800 29-232) (Fc fusion)	70.7	1.87	2.93	8.33					
B1					binds				
B2						109	133	147	140
B3						81.3	104	112	117
